Results as given in PMC8539644.

Biological target: GerD–mScarlet-I (Bacillus cereus ATCC 14579)
Test: FRET or BRET; sensitized emission (filter) FRET by wide-field fluorescence microscopy in single dormant B. cereus spores; donor SGFP2, acceptor mScarlet-I; normalized FRET (NFRET) corrected for bleed-through and cross-excitation

**Q.** GerR(A-C-B)–SGFP2 (complex) was tested. Which FRET efficiency did it give?
**A.** 6%

**Q.** GerRB–SGFP2 (natural protein) was tested. Which FRET efficiency did it give?
**A.** 6%
